From publication PMC9092428, “Towards identification of protein–protein interaction stabilizers via inhibitory peptide-fragment hybrids using templated fragment ligation” (RSC Chemical Biology, 2022)
Square brackets hold non-standard residues; d marks the D form. Ends that are not written are not given here. Peptide text beside a SMILES is read from it. hydrazide = C-terminal Gly-hydrazide; hydrazone‑SIG17 = not defined here; hydrazone‑FC45 = not defined here; pS = N[C@@H](COP(=O)(O)O)C(=O)O; Ahx = NCCCCCC(=O)O

Assays:
14-3-3η = target: T1, 14-3-3η (Homo sapiens, UniProt Q04917); experiment: Fluorescence anisotropy (FA) competition assay against tracer hDMX361–374^pSer367*; format: binding; conditions: 50 nM hDMX361–374^pSer367*
T1 construct: full length proteins were concentrated by centrifugation; His tag (pProEx HTb vector) (N); made in house; host or cells: E. coli BL21(DE3)
T1 sequence (Q04917 1-246): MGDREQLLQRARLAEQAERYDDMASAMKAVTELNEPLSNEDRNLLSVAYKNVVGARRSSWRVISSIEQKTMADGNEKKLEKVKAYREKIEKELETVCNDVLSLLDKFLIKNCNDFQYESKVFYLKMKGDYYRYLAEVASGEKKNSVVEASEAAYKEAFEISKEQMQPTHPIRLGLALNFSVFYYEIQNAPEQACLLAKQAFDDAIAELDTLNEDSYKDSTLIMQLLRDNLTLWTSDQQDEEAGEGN
Protocol: A fluorescence anisotropy (FA) competition assay was subsequently carried out using conditions previously found suitable for acylhydrazone formation (pH 6.5, 50 mM NH4OAc, 10 mM aniline) with added DTT (1 mM) to supress disulfide formation. hDMX361–369^pSer367Gly-hydrazide was used to compete with a tracer peptide: hDMX361–374^pSer367* for binding to 14-3-3η (Fig S2, ESI ^†). […] Initial attempts to screen in cocktails, established the aldehydes had no affect on their own (Fig. S3, ESI ^†). We then performed an assay where each aldehyde was screened individually with hDMX361–369^pSer367Gly-hydrazide. A decrease in anisotropy can be attributed to a particular hydrazone product, avoiding the additional step of product identification e.g. by HRMS, and, combines the equilibration step for hydrazone formation with 14-3-3η screening (Fig. 2a). […] To confirm the single-concentration results, a competition assay was performed (Fig. 2b). hDMX361–369^pSer367Gly-hydrazide was equilibrated with 5 equivalents of each aldehyde (product formation confirmed by LC-MS, see Fig. S4, ESI ^†), and serially diluted against the tracer peptide (hDMX361–374^pSer367*) and 14-3-3η protein.
Fig. 2 Dynamic ligation screening based on hDMX361–369^pSer367Gly-hydrazide (a) Anisotropy values of individually screened hydrazones (relative to buffer, zero activity negative control in grey), hDMX361–374^pSer367 (blue) and hDMX361–369^pSer367Gly-hydrazide (red) as positive controls with hits (hDMX361–369^pSer367Gly-hydrazone-FC45 and hDMX361–369^pSer367Gly-hydrazone-SIG17) highlighted in orange boxes (10 μM acetylated hydrazide peptide mixed with 5 eq. of aldehyde, 1 μM 14-3-3η, 50 nM hDMX361–374^pSer367*, 50 mM NH4OAc, 10 mM aniline and 1 mM DTT) (b) competition FA curves for hydrazones taken forward as hits (50 nM hDMX361–374^pSer367*, 1 μM 14-3-3η in 50 mM NH4OAc, 10 mM aniline and 1 mM DTT).
Fig. 3 Dynamic ligation screening based on hDMX361–370^pSer367Gly-hydrazide (a) anisotropy values of individually screened hydrazones (relative to buffer, zero activity negative control in grey), hDMX361–374^pSer367 (blue) and hDMX361–370^pSer367Gly-hydrazide (red) as positive controls with hits highlighted in black boxes (10 μM acetylated hydrazide peptide mixed with 5 eq. of aldehyde, 1 μM 14-3-3η, 50 nM hDMX361–374^pSer367*, 50 mM NH4OAc, 10 mM aniline and 1 mM DTT) (b) representative competition FA curves for hydrazones taken forwards as hits (50 nM hDMX361–374^pSer367*, 1 μM 14-3-3η in 50 mM NH4OAc, 10 mM aniline and 1 mM DTT). […]
Screening was performed using fluorescence anisotropy competition assay, in 50 mM NH4Ac pH 6.5 buffer containing 10 mM aniline, 1 mM DTT. […]

[1] = target: T2, hDMX361–374pSer367 361-374 (Homo sapiens, UniProt O15151); experiment: fluorescence anisotropy competition
T2 chain: DCRRTI[pS]APVVRPK

[2] = target: T3, hDMX361–369pSer367Gly-hydrazide 361-369 (Homo sapiens, UniProt O15151); experiment: fluorescence anisotropy competition
T3 chain: DCRRTI[pS]APG-hydrazide

[3] = target: T4, hDMX361–369pSer367Gly-hydrazone-SIG17 361-369 (Homo sapiens, UniProt O15151, reading uncertain; also: printed as hDMX361–369pSer367Gly-hydrazone-SIG17 361-369); experiment: fluorescence anisotropy competition
T4 chain: DCRRTI[pS]APG-{hydrazone‑SIG17}

[4] = target: T5, hDMX361–369pSer367Gly-hydrazone-FC45 361-369 (Homo sapiens, UniProt O15151, reading uncertain; also: printed as hDMX361–369pSer367Gly-hydrazone-FC45 361-369); experiment: fluorescence anisotropy competition
T5 chain: DCRRTI[pS]APG-{hydrazone‑FC45}

[5] = target: T6, hDMX361–370pSer367Gly* 361-370 (Homo sapiens, UniProt O15151, also: FAM-Ahx, end not given here); experiment: fluorescence anisotropy
T6 chain: {FAM-Ahx}-DCRRTI[pS]APVG

[6] = Fig. 2b experiment, hydrazide equilibrated with 5 eq. aldehyde, serially diluted, 1 μM 14-3-3η, 50 mM NH4OAc, 10 mM aniline, 1 mM DTT, pH 6.5

## CC[C@H](C)[C@H](NC(=O)[C@@H](NC(=O)[C@H](CCCNC(=N)N)NC(=O)[C@H](CCCNC(=N)N)NC(=O)[C@H](CS)NC(=O)[C@H](CC(=O)O)NC(C)=O)[C@@H](C)O)C(=O)N[C@@H](COP(=O)(O)O)C(=O)N[C@@H](C)C(=O)N1CCC[C@H]1C(=O)NCC(=O)NN [hDMX361–369^pSer367Gly-hydrazide] (HELM PEPTIDE1{[ac].D.C.R.R.T.I.[O=C([C@H](COP(=O)(O)O)N[*:1])[*:2]].A.P.G.[NN[*:1]]}$$$$V2.0)
14-3-3η; [6]
  IC50: 8.2 ± 1.3 µM

## CC[C@H](C)[C@H](NC(=O)[C@@H](NC(=O)[C@H](CCCNC(=N)N)NC(=O)[C@H](CCCNC(=N)N)NC(=O)[C@H](CS)NC(=O)[C@H](CC(=O)O)NC(C)=O)[C@@H](C)O)C(=O)N[C@@H](COP(=O)(O)O)C(=O)N[C@@H](C)C(=O)N1CCC[C@H]1C(=O)NCC(=O)N/N=C/c1cc(Br)cc([N+](=O)[O-])c1 [hDMX361–369^pSer367Gly-hydrazone-FC45] (HELM PEPTIDE1{[ac].D.C.R.R.T.I.[O=C([C@H](COP(=O)(O)O)N[*:1])[*:2]].A.P.G.[O=[N+]([O-])c1cc(Br)cc(/C=N/N[*:1])c1]}$$$$V2.0)
14-3-3η; [6]
  IC50: 10.4 ± 0.3 µM

## CC[C@H](C)[C@H](NC(=O)[C@@H](NC(=O)[C@H](CCCNC(=N)N)NC(=O)[C@H](CCCNC(=N)N)NC(=O)[C@H](CS)NC(=O)[C@H](CC(=O)O)NC(C)=O)[C@@H](C)O)C(=O)N[C@@H](COP(=O)(O)O)C(=O)N[C@@H](C)C(=O)N1CCC[C@H]1C(=O)N[C@H](C(=O)NCC(=O)NN)C(C)C [hDMX361–370^pSer367Gly-hydrazide] (HELM PEPTIDE1{[ac].D.C.R.R.T.I.[O=C([C@H](COP(=O)(O)O)N[*:1])[*:2]].A.P.V.G.[NN[*:1]]}$$$$V2.0)
14-3-3η; Fig. 3b experiment, 1 μM 14-3-3η in 50 mM NH4OAc, 10 mM aniline and 1 mM DTT
  IC50: 8.5 ± 1.6 µM

B1: 14-3-3η (protein)
chain: GDREQLLQRARLAEQAERYDDMASAMKAVTELNEPLSNEDRNLLSVAYKNVVGARRSSWRVISSIEQKTMADGNEKKLEKVKAYREKIEKELETVCNDVLSLLDKFLIKNCNDFQYESKVFYLKMKGDYYRYLAEVASGEKKNSVVEASEAAYKEAFEISKEQMQPTHPIRLGLALNFSVFYYEIQNAPEQACLLAKQAFDDAIAELDTLNEDSYKDSTLIMQLLRDNLTLWTSDQQDEEAGEGN
[1]
  IC50: 8.5 µM
[2]
  IC50: 8.2 µM
[3]
  IC50: 13.7 µM
[4]
  IC50: 10.4 µM
[5]
  Kd: 172 nM
